Measurements published in patent US20050164926A1 (published 2005).

Target: porcine trypsin (porcine, UniProt P00761 9-231)
Test: cell-based or functional assay

Chain of porcine trypsin (P00761 9-231 limits assumed): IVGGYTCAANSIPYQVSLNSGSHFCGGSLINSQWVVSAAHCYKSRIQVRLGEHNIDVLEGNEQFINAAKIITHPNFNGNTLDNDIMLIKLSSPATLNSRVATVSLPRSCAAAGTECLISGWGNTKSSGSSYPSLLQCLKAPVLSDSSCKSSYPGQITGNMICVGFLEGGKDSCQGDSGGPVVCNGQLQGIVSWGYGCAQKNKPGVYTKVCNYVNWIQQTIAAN

B1: ANV-KAPP (other)
chain: AQVLRGTVTDFPGFDERADAETLRKAMKGLGTDEESILTLLTSRSNAQRQEISAAFKTLFGRDLLDDLKSELTGKFEKLIVALMKPSRLYDAYELKHALKGAGTNEKVLTEIIASRTPEELRAIKQVYEEEYGSSLEDDVVGDTSGYYQRMLVVLLQANRDPDAGIDEAQVEQDAQALFQAGELKWGTDEEKFITIFGTRSVSHLRKVFDKYMTISGFQIEETIDRETSGNLEQLLLAVVKSIRSIPAYLAETLYYAMKGAGTDDHTLIRVMVSRSEIDLFNIRKEFRKNFATSLYSMIKGDTSGDYKKALLLLAGEDDEVCSEQAETGPCRAMISRWYFDVTEGKCAPFFYGGCGGNRNNFDTEEYCMAVCGSAI
  apparent stoichiometry of inhibition (amidolysis of S2444, titration of trypsin activity): 1 mol inhibitor per mol enzyme
